B1: ipilimumab (antibody, human IgG1, kappa, V domains shown)
VH: QVQLVESGGGVVQPGRSLRLSCAASGFTFSSYTMHWVRQAPGKGLEWVTFISYDGNNKYYADSVKGRFTISRDNSKNTLYLQMNSLRAEDTAIYYCARTGWLGPFDYWGQGTLVTVSS
VL: not shown
B2: non-fucosylated ipilimumab (antibody, human IgG1, kappa, V domains shown)
VH: B1 VH
VL: not shown
modifications: non-fucosylated (no fucose on the Asn297-linked oligosaccharide)

Molecular target: CTLA4 CD3 zeta on the 58 α-β-CTLA4 CD3 zeta expressing cell line (human)
Experiment: cell-based or functional assay

Sequence of CTLA4 CD3 zeta on the 58 α-β-CTLA4 CD3 zeta expressing cell line (human) (P16410 36-161): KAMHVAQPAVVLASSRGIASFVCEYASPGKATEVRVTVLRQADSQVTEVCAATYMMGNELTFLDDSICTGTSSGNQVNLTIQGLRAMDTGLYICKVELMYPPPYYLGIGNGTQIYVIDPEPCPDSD

| Binder | EC50 of NK92 cell-mediated specific lysis (calcein release) of 58 α-β-CTLA4 CD3 zeta cells |
| --- | --- |
| B1 | 0.13 ng/mL |
| B2 | 0.0056 ng/mL |
